According to article PMC9352680, “A comprehensive thermodynamic model for RNA binding by the Saccharomyces cerevisiae Pumilio protein PUF4”:

Target: T1, PUF4 RNA-binding domain (Saccharomyces cerevisiae, UniProt P25339 537-888)
T1 sequence: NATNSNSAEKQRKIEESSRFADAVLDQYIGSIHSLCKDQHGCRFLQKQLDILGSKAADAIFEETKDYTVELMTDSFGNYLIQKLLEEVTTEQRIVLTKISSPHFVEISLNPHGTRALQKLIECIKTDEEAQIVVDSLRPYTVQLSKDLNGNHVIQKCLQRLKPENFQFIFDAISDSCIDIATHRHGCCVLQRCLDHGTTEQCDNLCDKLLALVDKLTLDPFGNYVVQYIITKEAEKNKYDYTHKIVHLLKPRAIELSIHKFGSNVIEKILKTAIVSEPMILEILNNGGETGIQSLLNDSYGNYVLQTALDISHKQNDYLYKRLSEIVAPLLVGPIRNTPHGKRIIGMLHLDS
Experiment: Mg; RNA-MaP; 20 mM Na-HEPES pH 7.4, 30 mM KOAc, 0.75 mM MgCl2, 0.1% Tween-20, 5% glycerol, 0.1 mg/mL BSA, 2 mM DTT; 25 C; 0.0125-409.6 nM protein
Conditions: tags: N-His6-TEV cleaved; C-SNAP kept, Cy3B-labelled; label: tethered on chip by stalled RNA polymerase

B1: Ic_S2_P4E.1_K4.1_C4.1_H4.1_A4.1_[A6G]_[T7C]_F4.1_[T8G]_[A9G]_T4.1 (ssRNA)
RNA: UUUGAUUAAUAUGAUAUCGUUCUUUCUUGUAUGCGGUUCUUUCUCGAUAUCAUAUUAAUCUUU
In the case of B1, the Kd is reported as 1.31 µM.

B2: Ic_S2_P4E.1_K4.1_C4.1_H4.1_A4.1_[A6G]_[T7C]_F4.1_[T8C]_[A9T]_T4.1 (ssRNA)
RNA: UUUGAUUAAUAUGAUAUCGUUCUUUCUUGUAUGCCUUUCUUUCUCGAUAUCAUAUUAAUCUUU
B2 was tested, and the Kd was 0.404 µM.

B3: Ic_S2_P4E.1_K4.1_C4.1_H4.1_A4.1_[A6G]_[T7C]_F4.1_[T8C]_T4.1 (ssRNA)
RNA: UUUGAUUAAUAUGAUAUCGUUCUUUCUUGUAUGCCAUUCUUUCUCGAUAUCAUAUUAAUCUUU
Work on B3 yielded a Kd of 0.0293 µM.

UCUCUUUGUAUAUGCUCUCUU (ssRNA) [Ib_S1_P4E.1_K4.1_C4.1_H4.1_A4.1_F4.1_[T8G]_[A9C]_T4.1] gave a Kd of 0.0268 µM.

B4: Ic_S2_P4E.1_K4.1_C4.1_H4.1_A4.1_[A6G]_[T7C]_F4.1_[T8A]_[A9G]_T4.1 (ssRNA)
RNA: UUUGAUUAAUAUGAUAUCGUUCUUUCUUGUAUGCAGUUCUUUCUCGAUAUCAUAUUAAUCUUU
B4 was tested, and the Kd was 1.09 µM.

B5: Ic_S2_P4E.1_K4.1_C4.1_H4.1_A4.1_[A6G]_[T7C]_F4.1_[T8A]_[A9C]_T4.1 (ssRNA)
RNA: UUUGAUUAAUAUGAUAUCGUUCUUUCUUGUAUGCACUUCUUUCUCGAUAUCAUAUUAAUCUUU
Work on B5 yielded a Kd of 0.848 µM.

B6: Ic_S2_P4E.1_K4.1_C4.1_H4.1_A4.1_[A6G]_[T7C]_F4.1_[T8A]_[A9T]_T4.1 (ssRNA)
RNA: UUUGAUUAAUAUGAUAUCGUUCUUUCUUGUAUGCAUUUCUUUCUCGAUAUCAUAUUAAUCUUU
For B6, the Kd was 0.155 µM.

B7: Ic_S2_P4E.1_K4.1_C4.1_H4.1_A4.1_[A6G]_[T7C]_F4.1_[T8A]_T4.1 (ssRNA)
RNA: UUUGAUUAAUAUGAUAUCGUUCUUUCUUGUAUGCAAUUCUUUCUCGAUAUCAUAUUAAUCUUU
Binder B7 has a Kd of 0.239 µM.

B8: Ic_S2_P4E.1_K4.1_C4.1_H4.1_A4.1_[A6G]_[T7C]_F4.1_[A9T]_T4.1 (ssRNA)
RNA: UUUGAUUAAUAUGAUAUCGUUCUUUCUUGUAUGCUUUUCUUUCUCGAUAUCAUAUUAAUCUUU
In the case of B8, the Kd is reported as 0.0239 µM.

B9: Ic_S2_P4E.1_K4.1_C4.1_H4.1_A4.1_[A6G]_F4.1_[T8G]_[A9G]_T4.1 (ssRNA)
RNA: UUUGAUUAAUAUGAUAUCGUUCUUUCUUGUAUGUGGUUCUUUCUCGAUAUCAUAUUAAUCUUU
B9 was tested, and the Kd was 0.215 µM.

B10: Ic_S2_P4E.1_K4.1_C4.1_H4.1_A4.1_[A6G]_F4.1_[T8G]_[A9C]_T4.1 (ssRNA)
RNA: UUUGAUUAAUAUGAUAUCGUUCUUUCUUGUAUGUGCUUCUUUCUCGAUAUCAUAUUAAUCUUU
B10 showed a Kd of 0.04 µM.

B11: Ic_S2_P4E.1_K4.1_C4.1_H4.1_A4.1_[A6G]_F4.1_[T8G]_[A9T]_T4.1 (ssRNA)
RNA: UUUGAUUAAUAUGAUAUCGUUCUUUCUUGUAUGUGUUUCUUUCUCGAUAUCAUAUUAAUCUUU
B11 was tested, and the Kd was 0.017 µM.

B12: Ic_S2_P4E.1_K4.1_C4.1_H4.1_A4.1_[A6G]_F4.1_[T8C]_[A9C]_T4.1 (ssRNA)
RNA: UUUGAUUAAUAUGAUAUCGUUCUUUCUUGUAUGUCCUUCUUUCUCGAUAUCAUAUUAAUCUUU
In the case of B12, the Kd is reported as 0.0325 µM.

B13: Ic_S2_P4E.1_K4.1_C4.1_H4.1_A4.1_[A6G]_F4.1_[T8C]_[A9T]_T4.1 (ssRNA)
RNA: UUUGAUUAAUAUGAUAUCGUUCUUUCUUGUAUGUCUUUCUUUCUCGAUAUCAUAUUAAUCUUU
In the case of B13, the Kd is reported as 0.057 µM.

In the case of UCUCUUUGUAUAUGUUCUCUU (ssRNA) [Ic_S1_P4E.1_K4.1_C4.1_H4.1_A4.1_F4.1_[T8G]_[A9T]_T4.1], the Kd is reported as 0.0156 µM.

B14: Ic_S2_P4E.1_K4.1_C4.1_H4.1_A4.1_[A6G]_F4.1_[T8A]_[A9C]_T4.1 (ssRNA)
RNA: UUUGAUUAAUAUGAUAUCGUUCUUUCUUGUAUGUACUUCUUUCUCGAUAUCAUAUUAAUCUUU
B14 showed a Kd of 0.0558 µM.

B15: Ic_S2_P4E.1_K4.1_C4.1_H4.1_A4.1_[A6G]_F4.1_[T8A]_[A9T]_T4.1 (ssRNA)
RNA: UUUGAUUAAUAUGAUAUCGUUCUUUCUUGUAUGUAUUUCUUUCUCGAUAUCAUAUUAAUCUUU
Work on B15 yielded a Kd of 0.0269 µM.

B16: Ic_S2_P4E.1_K4.1_C4.1_H4.1_A4.1_[A6C]_[T7G]_F4.1_[A9G]_T4.1 (ssRNA)
RNA: UUUGAUUAAUAUGAUAUCGUUCUUUCUUGUAUCGUGUUCUUUCUCGAUAUCAUAUUAAUCUUU
Work on B16 yielded a Kd of 0.0593 µM.

B17: Ic_S2_P4E.1_K4.1_C4.1_H4.1_A4.1_[A6C]_[T7G]_F4.1_[A9C]_T4.1 (ssRNA)
RNA: UUUGAUUAAUAUGAUAUCGUUCUUUCUUGUAUCGUCUUCUUUCUCGAUAUCAUAUUAAUCUUU
In the case of B17, the Kd is reported as 0.507 µM.

B18: Ic_S2_P4E.1_K4.1_C4.1_H4.1_A4.1_[A6C]_[T7C]_F4.1_[T8G]_[A9G]_T4.1 (ssRNA)
RNA: UUUGAUUAAUAUGAUAUCGUUCUUUCUUGUAUCCGGUUCUUUCUCGAUAUCAUAUUAAUCUUU
In the case of B18, the Kd is reported as 0.866 µM.

B19: Ic_S2_P4E.1_K4.1_C4.1_H4.1_A4.1_[A6C]_[T7C]_F4.1_[T8G]_[A9C]_T4.1 (ssRNA)
RNA: UUUGAUUAAUAUGAUAUCGUUCUUUCUUGUAUCCGCUUCUUUCUCGAUAUCAUAUUAAUCUUU
For B19, the Kd was 0.8 µM.

B20: Ic_S2_P4E.1_K4.1_C4.1_H4.1_A4.1_[A6C]_[T7C]_F4.1_[T8G]_[A9T]_T4.1 (ssRNA)
RNA: UUUGAUUAAUAUGAUAUCGUUCUUUCUUGUAUCCGUUUCUUUCUCGAUAUCAUAUUAAUCUUU
B20 was tested, and the Kd was 0.149 µM.

B21: Ic_S2_P4E.1_K4.1_C4.1_H4.1_A4.1_[A6C]_[T7C]_F4.1_[T8C]_[A9T]_T4.1 (ssRNA)
RNA: UUUGAUUAAUAUGAUAUCGUUCUUUCUUGUAUCCCUUUCUUUCUCGAUAUCAUAUUAAUCUUU
B21 was tested, and the Kd was 0.166 µM.

B22: Ic_S2_P4E.1_K4.1_C4.1_H4.1_A4.1_[A6C]_[T7C]_F4.1_[T8A]_[A9C]_T4.1 (ssRNA)
RNA: UUUGAUUAAUAUGAUAUCGUUCUUUCUUGUAUCCACUUCUUUCUCGAUAUCAUAUUAAUCUUU
B22 showed a Kd of 0.82 µM.
